{"source": "paper doi:10.1101/2024.10.01.615909", "about": "(bioRxiv, 2024)", "binders": {"B1": {"name": "His8-SUMO (HS)-IQD2 (natural protein)", "chain": "MGKKAKWFSSVKKAFSPDSKKSKQKLAEGQNGVISNPPVVDNVRQSSSSPPPALAPREVRVAEVIVERNRDLSPPSTADAVNVTATDVPVVPSSSAPGVVRRATPTRFAGKSNEEAAAILIQTIFRGYLARRALRAMRGLVRLKLLMEGSVVKRQAANTLKCMQTLSRVQSQIRARRIRMSEENQARQKQLLQKHAKELAGLKNGDNWNDSIQSKEKVEANLLSKYEATMRRERALAYSYSHQQNWKNNSKSGNPMFMDPSNPTWGWSWLERWMAGRPLESSEKEQSNSNNDNAASVKGSINRNEAAKSLTRNGSTQPNTPSSARGTPRNKNSFFSPPTPSRLNQSSRKSNDDDSKSTISVLSERNRRHSIAGSSVRDDESLAGSPALPSYMVPTKSARARLKPQSPLGGTTQENEGFTDKASAKKRLSYPTSPALPKPRRFSAPPKVESGGVTVTNGAGS"}}, "target": "T1, S-tag-KLCR1 (Arabidopsis thaliana, UniProt O81629 1-609)", "T1 sequence": "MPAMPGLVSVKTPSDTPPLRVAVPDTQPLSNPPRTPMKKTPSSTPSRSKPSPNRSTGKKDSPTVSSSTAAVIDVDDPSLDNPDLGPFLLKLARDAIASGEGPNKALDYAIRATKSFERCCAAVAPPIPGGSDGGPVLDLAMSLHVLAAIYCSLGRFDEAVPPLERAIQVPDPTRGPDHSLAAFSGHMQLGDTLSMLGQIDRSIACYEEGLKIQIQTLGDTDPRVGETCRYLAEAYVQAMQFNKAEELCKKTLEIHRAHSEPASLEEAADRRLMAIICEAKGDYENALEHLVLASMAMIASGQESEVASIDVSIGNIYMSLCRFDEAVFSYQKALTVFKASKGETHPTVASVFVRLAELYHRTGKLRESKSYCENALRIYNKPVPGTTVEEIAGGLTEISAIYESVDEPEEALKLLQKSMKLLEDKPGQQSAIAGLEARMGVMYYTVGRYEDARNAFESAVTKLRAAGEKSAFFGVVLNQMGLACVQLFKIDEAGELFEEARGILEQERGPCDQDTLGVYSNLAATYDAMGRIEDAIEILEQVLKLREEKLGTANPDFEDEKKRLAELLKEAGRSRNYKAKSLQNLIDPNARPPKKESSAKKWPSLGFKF", "experiment": "co-sedimentation"}
{"binder": "B1", "values": [{"measurement": "binding result", "result": "binds"}]}
